Measured values: patent publication US20230331827A1, “POTASSIUM CHANNEL INHIBITORS” (priority 2017, published 2023)

System: trypsin
Assay: Phage TRF binding assay on immobilised biotinylated trypsin (monoclonal phage ELISA)
Conditions: for % reduction in binding signal: GlyAla mutant (Pro3, Arg4 of EETI-II substituted) versus the clone, monoclonal phage; for Tryspin binding signal (FU): monoclonal phage supernatant, biotinylated trypsin on neutravidin plates
Procedure, shortened: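 Monoclonal phage from single clones tested for binding to biotinylated trypsin immobilised on neutravidin-coated plates. Bound phage detected with mouse anti-M13 antibody then europium-conjugated anti-mouse antibody, read by time-resolved fluorescence. Clones with >3x signal over background scored positive.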

Molecule | % reduction in binding signal | Tryspin binding signal (FU) | phage binding to trypsin (PEG precipitated phage, compared to EETI-II cow ULVC-Ab, FIG. 25)
KB_A07: EETI-II knottin fused into VL CDR2, D1A12 VH; parental KnotBody, isotype control (antibody, V domains shown) VH: EVQLVESGGGLVRPGGSLRLSCAASGFTFSSYAMSWVRQAPGKGLEWVSAISGSGGSTYYADSVKGRFTISRDNTKNSLYLQMTSLRADDTAFYYCVKDFGPGYGTGWFDYWGPGTLVTVSS VL: DIQMTQSPSSLSASVGDRVTITCRASQSISSYLNWYQQKPGKAPKLLIYAAGVCPRILMRCKQDSDCLAGCVCGPNGFCGSRSGVPSRFSGSGSGTDFTLTISSLQPEDFATYYCQQGASPPYTFGQGTKVEIKRT | 98% | 21448 FU | –
KB_A12: EETI-II knottin fused into VL CDR2, D1A12 VH; parental KnotBody, isotype control (antibody, V domains shown) VH: EVQLVESGGGLVRPGGSLRLSCAASGFTFSSYAMSWVRQAPGKGLEWVSAISGSGGSTYYADSVKGRFTISRDNTKNSLYLQMTSLRADDTAFYYCVKDFGPGYGTGWFDYWGPGTLVTVSS VL: QSVLTQPPSVSEAPRQRVTITCSGSSSNIGNNAVNWYQQLPGKAPKLLIYAAGRCPRILMRCKQDSDCLAGCVCGPNGFCGANSGVSDRFSAAKSGTSASLAINGLRSEDEADYYCAAWDDSLNGYVFGTGTKLTVLGQP | 99% | 69349 FU | superior binding to trypsin
